Experimental data reported in patent US20250345446A1 (Draupnir Bio ApS, priority 2022, published 2025).
Residues, ends and D or L forms follow the SMILES beside them. No end group written: not given here. *: point of attachment. Biotin = O=C1N[C@H]2[C@H](CS[C@H]2CCCCC(=O)*)N1

biological target: T1, soluble ectodomain of sortilin-6his (Homo sapiens, UniProt Q99523, V650M); assay: MST binding to soluble ectodomain of sortilin-6his; conditions: Table 1; biotin-linker-peptide bifunctional compounds; MST; read-out: KD score, binding to sortilin (Kd)
T1 construct: the soluble ectodomain of sortilin-6his is measured by microscale thermophoresis (MST)

Kd [nM] | Molecule
< 100 | CC(C)C[C@H](NC(=O)[C@H](CC(C)C)NC(=O)[C@H](CCC(N)=O)NC(=O)[C@H](Cc1ccccc1)NC(=O)CNC(=O)CNC(=O)[C@H](CO)NC(=O)CNC(=O)CNC(=O)CCCC[C@@H]1SC[C@@H]2NC(=O)N[C@@H]21)C(=O)O [compound 144] (Biotin-GGSGGFQLL-OH)
< 100 | CC(C)C[C@H](NC(=O)[C@H](CC(C)C)NC(=O)[C@H](CCC(N)=O)NC(=O)[C@H](CCCNC(=N)N)NC(=O)CNC(=O)CNC(=O)CNC(=O)CNC(=O)[C@H](CO)NC(=O)CNC(=O)CNC(=O)CCCC[C@@H]1SC[C@@H]2NC(=O)N[C@@H]21)C(=O)O [compound 150] (Biotin-GGSGGGGRQLL-OH)
100 to 2000 | CC(C)C[C@H](NC(=O)[C@H](CC(C)C)NC(=O)[C@H](CCC(N)=O)NC(=O)[C@H](CCCNC(=N)N)NC(=O)[C@H](CO)NC(=O)CNC(=O)CNC(=O)CCCC[C@@H]1SC[C@@H]2NC(=O)N[C@@H]21)C(=O)O [compound 152] (Biotin-GGSRQLL-OH)
< 100 | CC(C)C[C@H](NC(=O)[C@H](CC(C)C)NC(=O)[C@H](CCC(N)=O)NC(=O)[C@H](CCCNC(=N)N)NC(=O)CNC(=O)CNC(=O)CCCC[C@@H]1SC[C@@H]2NC(=O)N[C@@H]21)C(=O)O [compound 153] (Biotin-GGRQLL-OH)
< 100 | CC(C)C[C@H](NC(=O)[C@H](CC(C)C)NC(=O)[C@H](CCC(N)=O)NC(=O)[C@H](CCCNC(=N)N)NC(=O)CCCC[C@@H]1SC[C@@H]2NC(=O)N[C@@H]21)C(=O)O [compound 154] (Biotin-RQLL-OH)

same assay, conditions: Table 3; monofunctional peptides; MST; read-out: KD score, binding to sortilin (Kd)

Kd [nM] | Molecule
> 2500 | CC[C@H](C)[C@H](NC(=O)[C@H](CC(C)C)NC(=O)[C@H](CCC(N)=O)NC(=O)[C@@H](N)CCCNC(=N)N)C(=O)O [compound 163] (H-RQLI-OH)
> 2500 | CC(C)C[C@H](NC(=O)[C@H](CCC(N)=O)NC(=O)[C@@H](N)CCCNC(=N)N)C(=O)N[C@@H](Cc1ccccc1)C(=O)O [compound 164] (H-RQLF-OH)
> 2500 | CSCC[C@H](NC(=O)[C@H](CC(C)C)NC(=O)[C@H](CCC(N)=O)NC(=O)[C@@H](N)CCCNC(=N)N)C(=O)O [compound 165] (H-RQLM-OH)
> 2500 | CC(C)C[C@H](NC(=O)[C@H](CCC(N)=O)NC(=O)[C@@H](N)CCCNC(=N)N)C(=O)O [compound 166] (H-Arg-Gln-Leu-OH)
250 to 2500 | CC(C)C[C@H](NC(=O)[C@H](CCCNC(=N)N)NC(=O)[C@H](C)NC(=O)[C@H](C)N)C(=O)O [compound 196, AARL-OH] (H-AARL-OH)
25 to 250 | APLRDPAPRQLL-OH [compound 57]
25 to 250 | GGSGGGGSGGGGSGGRQLL-OH [compound 167]
> 2500 | H-GVSWGLR-OH [compound 52]
> 2500 | H-ITVDPRLFKKRRLRSPRVLF-NH2 [compound 48]
< 25 | H-WSGPIGVSWGLRAAAAGFQLL-OH [compound 179]
> 2500 | LYENK-NH2 [compound 65]
> 2500 | PIPLV [compound 197, PIPLV-OH]
< 25 | REALRWDAPLRDPAPRQLL-OH [compound 54]
< 25 | REAPRWDAPLRDPALFQLL-OH [compound 58]
< 25 | REAPRWDAPLRDPALRYLL-OH [compound 59]
25 to 250 | REAPRWDAPLRDPALRYYL-OH [compound 61]

Molecule | Kd [nM]
TGGFM-OH [compound 62] | > 2500

biological target: T2, Sortilin-6His (Homo sapiens (Human), UniProt Q99523 78-755); assay: MST on labelled sortilin-6his ectodomain; KD score: ++ <100 nM, + 100-2000 nM; conditions: not given
T2 construct: In MST it was labelled non-covalently with RED-tris-NTA; also called soluble ectodomain of sortilin-6his; fluorescent sortilin-6his
T2 sequence (Q99523 78-755 V650M limits assumed): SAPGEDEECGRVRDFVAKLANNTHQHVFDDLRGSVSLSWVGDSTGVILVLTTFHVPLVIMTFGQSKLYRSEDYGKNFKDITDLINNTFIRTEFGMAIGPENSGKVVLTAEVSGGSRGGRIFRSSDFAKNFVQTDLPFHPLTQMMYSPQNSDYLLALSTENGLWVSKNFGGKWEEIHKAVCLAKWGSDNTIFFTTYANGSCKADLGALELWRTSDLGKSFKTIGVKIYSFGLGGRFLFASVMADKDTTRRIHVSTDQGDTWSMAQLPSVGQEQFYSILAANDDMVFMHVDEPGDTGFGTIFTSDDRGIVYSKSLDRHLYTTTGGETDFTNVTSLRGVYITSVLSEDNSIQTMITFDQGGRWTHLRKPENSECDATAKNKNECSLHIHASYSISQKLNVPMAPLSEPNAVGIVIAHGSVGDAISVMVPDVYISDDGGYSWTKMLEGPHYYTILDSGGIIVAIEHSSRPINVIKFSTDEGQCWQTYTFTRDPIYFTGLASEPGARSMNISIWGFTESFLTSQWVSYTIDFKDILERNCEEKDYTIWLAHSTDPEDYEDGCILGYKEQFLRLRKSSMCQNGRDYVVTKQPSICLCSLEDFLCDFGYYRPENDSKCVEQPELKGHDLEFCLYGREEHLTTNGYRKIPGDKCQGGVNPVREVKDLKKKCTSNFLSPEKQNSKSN

KD [nM] | Molecule
< 100 | Biotin-GGSGGGGFQLL-OH (SMILES CC(C)C[C@H](NC(=O)[C@H](CC(C)C)NC(=O)[C@H](CCC(N)=O)NC(=O)[C@H](Cc1ccccc1)NC(=O)CNC(=O)CNC(=O)CNC(=O)CNC(=O)[C@H](CO)NC(=O)CNC(=O)CNC(=O)CCCC[C@@H]1SC[C@@H]2NC(=O)N[C@@H]21)C(=O)O) [Biotin-GGSGGGGFQLL-OH]
< 100 | Biotin-GGSGGGGRQLL-OH (SMILES CC(C)C[C@H](NC(=O)[C@H](CC(C)C)NC(=O)[C@H](CCC(N)=O)NC(=O)[C@H](CCCNC(=N)N)NC(=O)CNC(=O)CNC(=O)CNC(=O)CNC(=O)[C@H](CO)NC(=O)CNC(=O)CNC(=O)CCCC[C@@H]1SC[C@@H]2NC(=O)N[C@@H]21)C(=O)O) [Biotin-GGSGGGGRQLL-OH]
< 100 | Biotin-GGSGGFQLL-OH (SMILES CC(C)C[C@H](NC(=O)[C@H](CC(C)C)NC(=O)[C@H](CCC(N)=O)NC(=O)[C@H](Cc1ccccc1)NC(=O)CNC(=O)CNC(=O)[C@H](CO)NC(=O)CNC(=O)CNC(=O)CCCC[C@@H]1SC[C@@H]2NC(=O)N[C@@H]21)C(=O)O) [Biotin-GGSGGFQLL-OH]
100 to 2000 | Biotin-GGSRQLL-OH (SMILES CC(C)C[C@H](NC(=O)[C@H](CC(C)C)NC(=O)[C@H](CCC(N)=O)NC(=O)[C@H](CCCNC(=N)N)NC(=O)[C@H](CO)NC(=O)CNC(=O)CNC(=O)CCCC[C@@H]1SC[C@@H]2NC(=O)N[C@@H]21)C(=O)O) [Biotin-GGSRQLL-OH]
< 100 | Biotin-GGRQLL-OH (SMILES CC(C)C[C@H](NC(=O)[C@H](CC(C)C)NC(=O)[C@H](CCC(N)=O)NC(=O)[C@H](CCCNC(=N)N)NC(=O)CNC(=O)CNC(=O)CCCC[C@@H]1SC[C@@H]2NC(=O)N[C@@H]21)C(=O)O) [Biotin-GGRQLL-OH]
< 100 | Biotin-RQLL-OH (SMILES CC(C)C[C@H](NC(=O)[C@H](CC(C)C)NC(=O)[C@H](CCC(N)=O)NC(=O)[C@H](CCCNC(=N)N)NC(=O)CCCC[C@@H]1SC[C@@H]2NC(=O)N[C@@H]21)C(=O)O) [Biotin-RQLL-OH]

test system: HEK293 cells expressing full length sortilin receptor; assay: Cellular uptake of NA650 in HEK293/sortilin cells; assay type: cell-based; conditions: SEQ ID NO.: 147 (300 nM) and NA650 (100 nM), 3 h incubation, competitor titrated; read-out: IC50 of inhibition of degrader induced internalization of NA650
Method: Cellular uptake of NA650 was investigated in HEK293 cells expressing full length sortilin receptor (Petersen et. al.). Cells were seeded in poly-L-lysine coated 96-well plates (Perkin Elmer) (40K/well) in 50 μL culture medium (DMEM (Lonza)+10% FBS (SigmaAldrich)+1% penicillin-streptomycin (SigmaAldrich)+1% GlutaMAX (Gibco)+100 μg/mL Zeocin (Invitrogen)) and incubated overnight in cell incubator (37° C., humidified, 5% CO2).
Culture medium was replaced with assay medium (DMEM (Lonza)+10% fetal bovine serum (SigmaAldrich)+1% penicillin-streptomycin (SigmaAldrich)+1% GlutaMAX (Gibco)) containing NA650 (Invitrogen) (100 nM) (Thermo Fischer) and peptidic bifunctional compounds (9.8 nM to 10 μM). Cells were incubated for 3 h in cell incubator before they were washed in dPBS (Bionordika). The DyLight650 signal in the cell layer was detected using a fluorescence plate reader (BMG Labtech Clariostar).
Cellular uptake of NA650 was investigated in HEK293 cells expressing full length sortilin receptor using a methodology analogous to example 3.

Molecule | IC50 [nM]
Cc1cccc(NC(=O)c2ccc(C(F)(F)F)cc2C(=O)O)n1 [AF38469, reference compound] | 589

biological target: T2, Sortilin-6His; assay: MST on labelled sortilin-6his ectodomain; KD score: +++ <25 nM, ++ 25-250 nM, + 250-2500 nM, 0 >2500 nM; conditions: not given

KD [nM] | Molecule
< 25 | REALRWDAPLRDPAPRQLL
< 25 | WSGPIGVSWGLRAAAAGFQLL-OH [WSGPIGVSWGLRAAAAGFQLL-OH]
25 to 250 | LYENKPRRPYIL
25 to 250 | APLRDPAPRQLL
25 to 250 | GGSGGGGSGGGGSGGRQLL-OH [GGSGGGGSGGGGSGGRQLL-OH]
250 to 2500 | H-FYIL-OH [H-FYIL-OH]
25 to 250 | H-KQLL-OH [H-KQLL-OH]
25 to 250 | H-PYIL-OH [H-PYIL-OH]
25 to 250 | H-RYYL-OH [H-RYYL-OH]
250 to 2500 | H-PYLL-OH [H-PYLL-OH]
250 to 2500 | H-RQYL-OH [H-RQYL-OH]
250 to 2500 | IQLL
250 to 2500 | H-RQFL-OH [H-RQFL-OH]
250 to 2500 | H-RYFL-OH [H-RYFL-OH]
250 to 2500 | H-RYIL-OH [H-RYIL-OH]
25 to 250 | H-PQLL-OH [H-PQLL-OH]
250 to 2500 | LQLL
< 25 | PYILKRQLYENKPRRPYIL
< 25 | REAPRWDAPLRDPALRQLL
25 to 250 | REAPRWDAPLRDPALRYYL
< 25 | REAPRWDAPLRDPALRYLL
< 25 | REAPRWDAPLRDPALFQLL
